Target: Taxol-stabilized microtubules from porcine brain tubulin, P02550
Assay: microtubule pelleting assay
Conditions: chain shown with the change;, read off a plot

Chain of Taxol-stabilized microtubules from porcine brain tubulin, P02550 (P02550 other isoform, or with tags, fused parts or gaps, chain 1 of 2): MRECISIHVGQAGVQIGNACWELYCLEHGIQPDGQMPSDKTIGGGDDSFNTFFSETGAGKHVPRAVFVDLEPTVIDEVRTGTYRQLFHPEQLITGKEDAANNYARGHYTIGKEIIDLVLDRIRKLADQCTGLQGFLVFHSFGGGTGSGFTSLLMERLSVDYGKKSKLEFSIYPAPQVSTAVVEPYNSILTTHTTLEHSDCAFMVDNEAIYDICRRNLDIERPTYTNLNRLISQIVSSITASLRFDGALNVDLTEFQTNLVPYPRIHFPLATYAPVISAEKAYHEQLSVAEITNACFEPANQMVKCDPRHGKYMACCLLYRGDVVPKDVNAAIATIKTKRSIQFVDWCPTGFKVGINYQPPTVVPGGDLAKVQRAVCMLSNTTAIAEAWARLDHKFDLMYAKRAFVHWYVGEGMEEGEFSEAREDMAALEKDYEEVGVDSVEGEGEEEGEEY
Chain of Taxol-stabilized microtubules from porcine brain tubulin, P02550 (chain, as listed by the source, chain 2 of 2): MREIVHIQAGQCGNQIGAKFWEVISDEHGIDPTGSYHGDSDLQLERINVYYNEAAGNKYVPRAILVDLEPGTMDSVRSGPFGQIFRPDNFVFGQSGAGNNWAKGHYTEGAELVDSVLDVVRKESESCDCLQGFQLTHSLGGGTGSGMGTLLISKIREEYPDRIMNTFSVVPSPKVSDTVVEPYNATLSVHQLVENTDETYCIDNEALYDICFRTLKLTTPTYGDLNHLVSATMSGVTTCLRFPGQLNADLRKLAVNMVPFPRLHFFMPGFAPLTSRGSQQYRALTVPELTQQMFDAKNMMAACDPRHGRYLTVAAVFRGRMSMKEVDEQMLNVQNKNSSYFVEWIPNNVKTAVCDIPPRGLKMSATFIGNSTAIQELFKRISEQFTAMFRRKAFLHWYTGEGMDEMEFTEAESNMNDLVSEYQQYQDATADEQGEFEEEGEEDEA

Row | response (fraction microtubule bound) (parent: est. 0.78) | response (fraction microtubule bound) (parent: est. 0.70) | Binder
1 | 0.35 |  | LRRK2^RCKW (catalytic half of LRRK2: ROC, COR, kinase and WD40 domains), wild type, Q5S007 R1384A; K1385A (protein) KKAVPYNRMKLMIVGNTGSGKTTLLQQLMKTKKSDLGMQSATVGIDVKDWPIQIRDKAARDLVLNVWDFAGREEFYSTHPHFMTQRALYLAVYDLSKGQAEVDAMKPWLFNIKARASSSPVILVGTHLDVSDEKQRKACMSKITKELLNKRGFPAIRDYHFVNATEESDALAKLRKTIINESLNFKIRDQLVVGQLIPDCYVELEKIILSERKNVPIEFPVIDRKRLLQLVRENQLQLDENELPHAVHFLNESGVLLHFQDPALQLSDLYFVEPKWLCKIMAQILTVKVEGCPKHPKGIISRRDVEKFLSKKRKFPKNYMSQYFKLLEKFQIALPIGEEYLLVPSSLSDHRPVIELPHCENSEIIIRLYEMPYFPMGFWSRLINRLLEISPYMLSGRERALRPNRMYWRQGIYLNWSPEAYCLVGSEVLDNHPESFLKITVPSCRKGCILLGQVVDHIDSLMEEWFPGLLEIDICGEGETLLKKWALYSFNDGEEHQKILLDDLMKKAEEGDLLVNPDQPRLTIPISQIAPDLILADLPRNIMLNNDELEFEQAPEFLLGDGSFGSVYRAAYEGEEVAVKIFNKHTSLRLLRQELVVLCHLHHPSLISLLAAGIRPRMLVMELASKGSLDRLLQQDKASLTRTLQHRIALHVADGLRYLHSAMIIYRDLKPHNVLLFTLYPNAAIIAKIADYGIAQYCCRMGIKTSEGTPGFRAPEVARGNVIYNQQADVYSFGLLLYDILTTGGRIVEGLKFPNEFDELEIQGKLPDPVKEYGCAPWPMVEKLIKQCLKENPQERPTSAQVFDILNSAELVCLTRRILLPKNVIVECMVATHHNSRNASIWLGCGHTDRGQLSFLDLNTEGYTSEEVADSRILCLALVHLPVEKESWIVSGTQSGTLLVINTEDGKKRHTLEKMTDSVTCLYCNSFSKQSKQKNFLLVGTADGKLAIFEDKTVKLKGAAPLKILNIGNVSTPLMCLSESTNSTERNVMWGGCGTKIFSFSNDFTIQKLIETRTSQLFSYAAFSDSNIITVVVDTALYIAKQNSPVVEVWDKKTEKLCGLIDCVHFLREVMVKENKESKHKMSYSGRVKTLCLQKNTALWIGTGGGHILLLDLSTRRLIRVIYNFCNSVRVMMTAQLGSLKNVMLVLGYNRKNTEGTQKQKEIQSCLTVWDINLPHEVQNLEKHIEVRKELAEKMRRTSVE
2 |  | 0.1 | LRRK2^RCKW (catalytic half of LRRK2: ROC, COR, kinase and WD40 domains), wild type, Q5S007 R1731D; S2345D (protein) KKAVPYNRMKLMIVGNTGSGKTTLLQQLMKTKKSDLGMQSATVGIDVKDWPIQIRDKRKRDLVLNVWDFAGREEFYSTHPHFMTQRALYLAVYDLSKGQAEVDAMKPWLFNIKARASSSPVILVGTHLDVSDEKQRKACMSKITKELLNKRGFPAIRDYHFVNATEESDALAKLRKTIINESLNFKIRDQLVVGQLIPDCYVELEKIILSERKNVPIEFPVIDRKRLLQLVRENQLQLDENELPHAVHFLNESGVLLHFQDPALQLSDLYFVEPKWLCKIMAQILTVKVEGCPKHPKGIISRRDVEKFLSKKRKFPKNYMSQYFKLLEKFQIALPIGEEYLLVPSSLSDHRPVIELPHCENSEIIIRLYEMPYFPMGFWSRLINRLLEISPYMLSGRERALRPNDMYWRQGIYLNWSPEAYCLVGSEVLDNHPESFLKITVPSCRKGCILLGQVVDHIDSLMEEWFPGLLEIDICGEGETLLKKWALYSFNDGEEHQKILLDDLMKKAEEGDLLVNPDQPRLTIPISQIAPDLILADLPRNIMLNNDELEFEQAPEFLLGDGSFGSVYRAAYEGEEVAVKIFNKHTSLRLLRQELVVLCHLHHPSLISLLAAGIRPRMLVMELASKGSLDRLLQQDKASLTRTLQHRIALHVADGLRYLHSAMIIYRDLKPHNVLLFTLYPNAAIIAKIADYGIAQYCCRMGIKTSEGTPGFRAPEVARGNVIYNQQADVYSFGLLLYDILTTGGRIVEGLKFPNEFDELEIQGKLPDPVKEYGCAPWPMVEKLIKQCLKENPQERPTSAQVFDILNSAELVCLTRRILLPKNVIVECMVATHHNSRNASIWLGCGHTDRGQLSFLDLNTEGYTSEEVADSRILCLALVHLPVEKESWIVSGTQSGTLLVINTEDGKKRHTLEKMTDSVTCLYCNSFSKQSKQKNFLLVGTADGKLAIFEDKTVKLKGAAPLKILNIGNVSTPLMCLSESTNSTERNVMWGGCGTKIFSFSNDFTIQKLIETRTSQLFDYAAFSDSNIITVVVDTALYIAKQNSPVVEVWDKKTEKLCGLIDCVHFLREVMVKENKESKHKMSYSGRVKTLCLQKNTALWIGTGGGHILLLDLSTRRLIRVIYNFCNSVRVMMTAQLGSLKNVMLVLGYNRKNTEGTQKQKEIQSCLTVWDINLPHEVQNLEKHIEVRKELAEKMRRTSVE
3 |  | 0.53 | LRRK2^RCKW (catalytic half of LRRK2: ROC, COR, kinase and WD40 domains), wild type, Q5S007 S2345D (protein) KKAVPYNRMKLMIVGNTGSGKTTLLQQLMKTKKSDLGMQSATVGIDVKDWPIQIRDKRKRDLVLNVWDFAGREEFYSTHPHFMTQRALYLAVYDLSKGQAEVDAMKPWLFNIKARASSSPVILVGTHLDVSDEKQRKACMSKITKELLNKRGFPAIRDYHFVNATEESDALAKLRKTIINESLNFKIRDQLVVGQLIPDCYVELEKIILSERKNVPIEFPVIDRKRLLQLVRENQLQLDENELPHAVHFLNESGVLLHFQDPALQLSDLYFVEPKWLCKIMAQILTVKVEGCPKHPKGIISRRDVEKFLSKKRKFPKNYMSQYFKLLEKFQIALPIGEEYLLVPSSLSDHRPVIELPHCENSEIIIRLYEMPYFPMGFWSRLINRLLEISPYMLSGRERALRPNRMYWRQGIYLNWSPEAYCLVGSEVLDNHPESFLKITVPSCRKGCILLGQVVDHIDSLMEEWFPGLLEIDICGEGETLLKKWALYSFNDGEEHQKILLDDLMKKAEEGDLLVNPDQPRLTIPISQIAPDLILADLPRNIMLNNDELEFEQAPEFLLGDGSFGSVYRAAYEGEEVAVKIFNKHTSLRLLRQELVVLCHLHHPSLISLLAAGIRPRMLVMELASKGSLDRLLQQDKASLTRTLQHRIALHVADGLRYLHSAMIIYRDLKPHNVLLFTLYPNAAIIAKIADYGIAQYCCRMGIKTSEGTPGFRAPEVARGNVIYNQQADVYSFGLLLYDILTTGGRIVEGLKFPNEFDELEIQGKLPDPVKEYGCAPWPMVEKLIKQCLKENPQERPTSAQVFDILNSAELVCLTRRILLPKNVIVECMVATHHNSRNASIWLGCGHTDRGQLSFLDLNTEGYTSEEVADSRILCLALVHLPVEKESWIVSGTQSGTLLVINTEDGKKRHTLEKMTDSVTCLYCNSFSKQSKQKNFLLVGTADGKLAIFEDKTVKLKGAAPLKILNIGNVSTPLMCLSESTNSTERNVMWGGCGTKIFSFSNDFTIQKLIETRTSQLFDYAAFSDSNIITVVVDTALYIAKQNSPVVEVWDKKTEKLCGLIDCVHFLREVMVKENKESKHKMSYSGRVKTLCLQKNTALWIGTGGGHILLLDLSTRRLIRVIYNFCNSVRVMMTAQLGSLKNVMLVLGYNRKNTEGTQKQKEIQSCLTVWDINLPHEVQNLEKHIEVRKELAEKMRRTSVE
4 | 0.48 |  | LRRK2^RCKW (catalytic half of LRRK2: ROC, COR, kinase and WD40 domains), wild type, Q5S007 K1358A; K1359A (protein) KKAVPYNRMKLMIVGNTGSGKTTLLQQLMKTAASDLGMQSATVGIDVKDWPIQIRDKRKRDLVLNVWDFAGREEFYSTHPHFMTQRALYLAVYDLSKGQAEVDAMKPWLFNIKARASSSPVILVGTHLDVSDEKQRKACMSKITKELLNKRGFPAIRDYHFVNATEESDALAKLRKTIINESLNFKIRDQLVVGQLIPDCYVELEKIILSERKNVPIEFPVIDRKRLLQLVRENQLQLDENELPHAVHFLNESGVLLHFQDPALQLSDLYFVEPKWLCKIMAQILTVKVEGCPKHPKGIISRRDVEKFLSKKRKFPKNYMSQYFKLLEKFQIALPIGEEYLLVPSSLSDHRPVIELPHCENSEIIIRLYEMPYFPMGFWSRLINRLLEISPYMLSGRERALRPNRMYWRQGIYLNWSPEAYCLVGSEVLDNHPESFLKITVPSCRKGCILLGQVVDHIDSLMEEWFPGLLEIDICGEGETLLKKWALYSFNDGEEHQKILLDDLMKKAEEGDLLVNPDQPRLTIPISQIAPDLILADLPRNIMLNNDELEFEQAPEFLLGDGSFGSVYRAAYEGEEVAVKIFNKHTSLRLLRQELVVLCHLHHPSLISLLAAGIRPRMLVMELASKGSLDRLLQQDKASLTRTLQHRIALHVADGLRYLHSAMIIYRDLKPHNVLLFTLYPNAAIIAKIADYGIAQYCCRMGIKTSEGTPGFRAPEVARGNVIYNQQADVYSFGLLLYDILTTGGRIVEGLKFPNEFDELEIQGKLPDPVKEYGCAPWPMVEKLIKQCLKENPQERPTSAQVFDILNSAELVCLTRRILLPKNVIVECMVATHHNSRNASIWLGCGHTDRGQLSFLDLNTEGYTSEEVADSRILCLALVHLPVEKESWIVSGTQSGTLLVINTEDGKKRHTLEKMTDSVTCLYCNSFSKQSKQKNFLLVGTADGKLAIFEDKTVKLKGAAPLKILNIGNVSTPLMCLSESTNSTERNVMWGGCGTKIFSFSNDFTIQKLIETRTSQLFSYAAFSDSNIITVVVDTALYIAKQNSPVVEVWDKKTEKLCGLIDCVHFLREVMVKENKESKHKMSYSGRVKTLCLQKNTALWIGTGGGHILLLDLSTRRLIRVIYNFCNSVRVMMTAQLGSLKNVMLVLGYNRKNTEGTQKQKEIQSCLTVWDINLPHEVQNLEKHIEVRKELAEKMRRTSVE

— PMC9758056
